Data published in patent US20250075006A1 (SHANDONG SIMCERE BIOPHARMACEUTICAL, published 2025).

T1: Cyno GUCY2C ECD (his-tagged cynomolgus monkey GUCY2C protein extracellular domain fusion protein) (cynomolgus monkey, UniProt P25092 24-430 (human entry))
T1 construct: also called monkey GUCY2C-his; monkey GUCY2C-His
T1 chain: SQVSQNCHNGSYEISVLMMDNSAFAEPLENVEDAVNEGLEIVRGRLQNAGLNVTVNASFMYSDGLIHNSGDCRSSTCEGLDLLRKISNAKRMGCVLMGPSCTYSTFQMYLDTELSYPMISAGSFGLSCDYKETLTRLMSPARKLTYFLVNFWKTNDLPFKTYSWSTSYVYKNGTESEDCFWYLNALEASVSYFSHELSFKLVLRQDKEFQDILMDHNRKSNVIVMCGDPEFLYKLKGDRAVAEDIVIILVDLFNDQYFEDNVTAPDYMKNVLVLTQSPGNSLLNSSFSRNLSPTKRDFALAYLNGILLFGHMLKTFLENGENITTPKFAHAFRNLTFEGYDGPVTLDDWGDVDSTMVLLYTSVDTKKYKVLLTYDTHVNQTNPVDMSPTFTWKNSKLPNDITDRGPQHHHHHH

B1: 5F9-hIgG1 (antibody, V domains shown)
VH: QVQLQQWGAGLLKPSETLSLTCAVFGGSFSGYYWSWIRQPPGKGLEWIGEINHRGNTNDNPSLKSRVTISVDTSKNQFALKLSSVTAADTAVYYCARERGYTYGNFDHWGQGTLVTVSS
VL: EIVMTQSPATLSVSPGERATLSCRASQSVSRNLAWYQQKPGQAPRLLIYGASTRATGIPARFSGSGSGTEFTLTIGSLQSEDFAVYYCQQYKTWPRTFGQGTNVEIKR
notes: also called positive control antibody
B2: PF1608-hIgG1 (antibody, V domains shown)
VH: EVQLVESGGGLVQPGGSLRLSCAASGFTFSSYWMHWVRQAPGKGLEWIGEIKPSNELTNVHEKFKDRFTISVDKAKNSAYLQMNSLRAEDTAVYYCTRTITTTEGYWFFDVWGQGTLVTVSS
VL: DIQLTQSPSSLSASVGDRVTITCRASESVDYYGSSLLQWYQQKPGKAPKLLIYAASKLASGVPSRFSGSGSGTDFTLTISSLQPEDFATYYCQQTRKAYTFGQGTKLEIKR
notes: also called PF1608-hlgG1; positive control antibody

Tests used:
[1] = target: T2, Human GUCY2C ECD (his-tagged human GUCY2C protein extracellular domain fusion protein) (human, UniProt P25092 24-430); assay: SPR Biacore, antibody on Protein A, antigen injected
T2 construct: also called human GUCY2C-his; human GUCY2C-His
T2 sequence (P25092 other isoform, or with tags, fused parts or gaps): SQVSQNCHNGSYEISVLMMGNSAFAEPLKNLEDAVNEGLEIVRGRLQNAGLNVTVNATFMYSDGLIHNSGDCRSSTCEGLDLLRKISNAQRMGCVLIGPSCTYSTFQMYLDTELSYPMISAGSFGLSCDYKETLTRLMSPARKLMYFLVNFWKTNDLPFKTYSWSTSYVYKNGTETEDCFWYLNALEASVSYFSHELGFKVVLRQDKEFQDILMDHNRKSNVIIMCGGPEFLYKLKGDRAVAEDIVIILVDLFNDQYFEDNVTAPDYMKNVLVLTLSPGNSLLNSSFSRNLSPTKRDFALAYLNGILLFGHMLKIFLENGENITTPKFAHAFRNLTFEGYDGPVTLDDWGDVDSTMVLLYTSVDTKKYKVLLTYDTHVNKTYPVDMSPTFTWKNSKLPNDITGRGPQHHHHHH
Experimental: The strength of antibody-antigen binding was assayed with a BIAcore 8K instrument using a Protein A capture method. First, Protein A was immobilized onto a CM4 chip (purchased from GE, BR-1005-34) using an amino coupling method. According to the instruction of the Amine Coupling Kit (purchased from GE, BR100633), NHS and EDC were mixed with HBS-EP+pH 7.4 as a mobile phase to activate the chip for about 600 s; the Protein A was diluted to 50 μg/mL with 10 mM sodium acetate (pH 4.5) and injected for 600 s, and finally, the remaining activated sites were blocked with ethanolamine. Then, the affinity of the antibody for the antigen was assayed using a multi-cycle kinetic method; in each cycle, first, the antibody to be tested was captured using the Protein A chip, and then a single concentration of antigen protein was injected. The association and dissociation processes of the antibody with the antigen protein were recorded, and finally, the chip was regenerated using Glycine pH 1.5, wherein the mobile phase was HBS-EP+(10 mM HEPES, 150 mM NaCl, 3 mM EDTA, 0.05% surfactant P20), the flow rate was 30 μL/min, the regeneration time was 30 s, and the assay temperature was 25° C. Finally, according to a 1:1 binding model, the data were analyzed, and the antibody-antigen binding kinetics parameters, including the association rate constant Ka, the dissociation rate constant Kd, the equilibrium dissociation constant KD, and the maximum binding signal Rmax, were fitted.
The association rate (Ka), dissociation rate (Kd), and binding affinity (KD) of the recombinant antibodies Lab306-huFc, Lab322-huFc, and Lab323-huFc with the human GUCY2C protein are shown in Table 5. The positive control antibody has good binding activity at the protein level, but has very weak binding at the cellular level. Lab322-huFc and Lab323-huFc, although weak in affinity, bind well to the cellular level, presumably due to differences in the conformation of the proteins and proteins at the viable cellular level.

[2] = target: T1, Cyno GUCY2C ECD (his-tagged cynomolgus …); assay: BLI Gator, antibody on anti-human Fc probe, antigen in solution
Experimental: (§1) Next, we measured the affinity of the recombinant antibody by another method, and the specific procedures were as follows: the binding strength of the antibody to the antigen was assayed by acquiring and analyzing the signal change of the reflection interference spectrum on the surface of the optical probe by using thin film interference technology. First, the probe was equilibrated for 300 s with HBS-T+pH 7.4 (0.02% tween) as the mobile phase. 2 μg/mL of the antibody to be tested was captured by an anti-human FC probe (purchased from ProbeLife, PL168-160003) for 240 s, and then antigen proteins with the concentration of 200 nM and diluted two-fold were injected. Kon for 300 s and Koff for 600 s. The association and dissociation processes of the antibody with the antigen protein were recorded, and finally, the chip was regenerated using Glycine pH 2.0 (purchased from GE), wherein the mobile phase was HBS-T+pH 7.4 (0.02% tween), the regeneration time was 5 s, and the assay temperature was 30° C. Finally, according to a 1:1 binding model, the data were analyzed, and the antibody-antigen binding kinetics parameters, including the association rate constant Ka, the dissociation rate constant Kd, the equilibrium dissociation constant KD, and the maximum binding signal Rmax, were fitted. The association rate (Ka), dissociation rate (Kd), and binding affinity (KD) of the recombinant antibodies with the human GUCY2C and monkey GUCY2C proteins are shown in Table 6.

[3] = target: T2, Human GUCY2C ECD (his-tagged human …); assay: as above
Experimental: as §1

[4] = target: T2, Human GUCY2C ECD (his-tagged human …); assay: ELISA, plate coated with human GUCY2C-his, OD450
Experimental: To assay the binding activity of the humanized antibodies to human GUCY2C-his protein, a human GUCY2C-his protein was diluted with PBS to a final concentration of 2 μg/mL and then added to a 96-well ELISA plate at 50 μL/well. The plate was sealed with a plastic film and incubated at 4° C. overnight. The next day, the plate was washed 2 times with PBST, and a blocking buffer [PBS+2% (w/w) BSA] was added for blocking at room temperature for 2 h. The blocking buffer was discarded, and the plate was washed 2 times with PBST. An antibody to be tested or a control antibody diluted in a 1:3 gradient from a starting concentration of 100 nM was added at 50 μL/well. After incubation at 37° C. for 1 h, the plate was washed 3 times with PBST. A horseradish peroxidase (HRP)—labeled secondary antibody (purchased from Merck, Cat. No. AP113P) was added for incubation at 37° C. for 1 h, and the plate was washed 5 times with PBST. A TMB substrate was added at 50 µL/well for incubation at room temperature for 5-10 min, and then a stop solution (1.0 M HCl) was added at 50 μL/well. OD450 nm values were read using an ELISA plate reader (Multimode Plate Reader, EnSight, purchased from Perkin Elmer).

Row | Binder | Kd [1] [nM] | koff [1] [s⁻¹] | kon [1] [M⁻¹ s⁻¹] | Kd [2] [nM] | koff [2] [s⁻¹] | kon [2] [M⁻¹ s⁻¹] | Kd [3] [nM] | koff [3] [s⁻¹] | kon [3] [M⁻¹ s⁻¹] | EC50 (read off the curve) [4] [nM]
1 | B1 | 2.19 | 0.00028 | 128000 | 0.998 | 0.000486 | 487000 | 1.14 | 0.000448 | 391000 | ~0.04
2 | B2 | 1.61 | 0.000235 | 146000 | 0.256 | 0.000138 | 540000 | 0.494 | 0.000197 | 400000 | ~0.05
